Reference: patent publication US11994512B2, “Single-cell genomic methods to generate ex vivo cell systems that recapitulate in vivo biology with improved fidelity” (Massachusetts Institute of Technology, priority 2018, dated 2024)

Tested on: intracellular proteome of ENR+CD and ENR organoids
Test: LC-MS/MS TMT proteomics of ENR+CD versus ENR organoids
Type: cell-based, C57BL/6 mice
Settings: for Average logFC: ENR+CD versus ENR organoids, sample pairs in aggregate (n=4, 2 technical replicates from two biological donors); for M1-1 Log2 Median Normalized / M1-2 Log2 Median Normalized / M2-1 Log2 Median Normalized / M2-2 Log2 Median Normalized: protein abundance ratio ENR+CD versus ENR organoids, LC-MS/MS TMT proteomics; for M1-1 Log2 Median Normalized: sample pair M1-1; for M1-2 Log2 Median Normalized: sample pair M1-2; for M2-1 Log2 Median Normalized: sample pair M2-1; for M2-2 Log2 Median Normalized: sample pair M2-2; for change: up = enriched in ENR+CD, down = enriched in ENR, FDR<0.05 and log fold change cut-off

Molecule	Average logFC	M1-1 Log2 Median Normalized	M1-2 Log2 Median Normalized	M2-1 Log2 Median Normalized	M2-2 Log2 Median Normalized	change
Q9QXV0 (protein, UniProt Q9QXV0 1-258, looked up, full-length) MAGSPLLCGPRAGGVGILVLLLLGLLRLPPTLSARPVKEPRSLSAASAPLVETSTPLRLRRAVPRGEAAGAVQELARALAHLLEAERQERARAEAQEAEDQQARVLAQLLRAWGSPRASDPPLAPDDDPDAPAAQLARALLRARLDPAALAAQLVPAPAAAPRPRPPVYDDGPTGPDVEDAGDETPDVDPELLRYLLGRILTGSSEPEAAPAPRRLRRSVDQDLGPEVPPENVLGALLRVKRLENPSPQAPARRLLPP	1.274	1.444	0.883	1.5975	1.172	up
Q9JJK5 (protein, UniProt Q9JJK5 1-391, looked up, full-length) MEPEPQPEPVTLLVKSPNQRHRDLELSGDRSWSVSRLKAHLSRVYPERPRPEDQRLIYSGKLLLDHQCLQDLLPKQEKRHVLHLVCNVKNPSKMPETSTKGAESTEQPDNSNQTQHPGDSSSDGLRQREVLRNLSPSGWENISRPEAVQQTFQGLGPGFSGYTTYGWLQLSWFQQIYARQYYMQYLAATAASGTFVPTPSAQEIPVVSTPAPAPIHNQFPAENQPANQNAAAQAVVNPGANQNLRMNAQGGPLVEEDDEINRDWLDWTYSAATFSVFLSILYFYSSLSRFLMVMGATVVMYLHHVGWFPFRQRPVQNFPDDGGPRDAANQDPNNNLQGGMDPEMEDPNRLPPDREVLDPEHTSPSFMSTAWLVFKTFFASLLPEGPPALAN	1.444	1.863	0.766	1.1435	2.005	up
Q9JME5 (protein, UniProt Q9JME5 1-1082, looked up, full-length) MSAAPAYSEDKGGSAGPGEPEYGHDPASGGIFSSDYKRHDDLKEMLDTNKDSLKLEAMKRIVAMIARGKNASDLFPAVVKNVACKNIEVKKLVYVYLVRYAEEQQDLALLSISTFQRGLKDPNQLIRASALRVLSSIRVPIIVPIMMLAIKEAASDMSPYVRKTAAHAIPKLYSLDSDQKDQLIEVIEKLLADKTTLVAGSVVMAFEEVCPERIDLIHKNYRKLCNLLIDVEEWGQVVIISMLTRYARTQFLSPTQNESLLEENPEKAFYGSEEDEAKGPGSEEAATAALPARKPYVMDPDHRLLLRNTKPLLQSRSAAVVMAVAQLYFHLAPKAEVGVIAKALVRLLRSHSEVQYVVLQNVATMSIKRRGMFEPYLKSFYIRSTDPTQIKILKLEVLTNLANETNIPTVLREFQTYIRSMDKDFVAATIQAIGRCATNIGRVRDTCLNGLVQLLSNRDELVVAESVVVIKKLLQMQPAQHGEIIKHLAKLTDNIQVPMARASILWLIGEYCEHVPKIAPDVLRKMAKSFTAEEDIVKLQVINLAAKLYLTNSKQTKLLTQYVLSLAKYDQNYDIRDRARFTRQLIVPSEQGGALSRHAKKLFLAPKPAPILESSFKDRDHFQLGSLSHLLNAKATGYQELPDWPEEAPDPSVRNVEVPEWTKCSNREKRKEKEKPFYSDSEGESGPTESADSEPESESESESKSSSGSGSGESSSESDNEEEDEEKGGGSESEQSEEEDEKKKKTKKKKASEGHREGSSSEEGSDSSSSSESEVTSESEEEQVEPASWRKKTPPGSKSAPVAKEISLLDLEDFTPPSVQPVSPPMVVSTSLAADLEGLTLTDSSLVPSLLSPVSSIGRQELLHRVAGEGLSVDYAFSRQPFSGDPHMVSLHIYFSNNSETPIKGLHVGTPKLPAGISIQEFPEIESLAPGESTTTVMGINFCDSTQAANFQLCTQTRQFYVSIQPPVGELMAPVFMSENEFKKEQGKLTGMNEITEKLTLPDTCRSDHMVVQKVTATANLGRVPCGTSDEYRFAGRTLTSGSLVLLTLDARAAGAAQLTVNSEKMVIGTMLVKDVIQALTQ	−1.256	−1.059	−1.31	−1.1945	−1.459	down
Q9QXD6 (protein, UniProt Q9QXD6 1-338, looked up, full-length) MANHAPFETDISTLTRFVMEQGRKAQGTGELTQLLNSLCTAIKAISSAVRQAGIAQLYGIAGSTNVTGDQVKKLDILSNDLVINMLKSSYATCVLVSEENTNAIIIEPEKRGKYVVCFDPLDGSSNIDCLVSIGTIFGIYRKKSTDEPSEKDALQPGRDLVAAGYALYGSATMLVLAMDCGVNCFMLDPSIGEFIMVDRDVKMKKKGNIYSLNEGYAKDFDPAINEYLQRKKFPPDGSAPYGARYVGSMVADIHRTLVYGGIFLYPANKKSPSGKLRLLYECNPIAYVMEKAGGLATTGDKDILDIVPTEIHQKAPVVMGSSEDVQEFLEIYRKHKAK	−1.895	−1.892	−2.49	−2.2475	−0.495	down
Q9JMH7 (protein, UniProt Q9JMH7 1-418, looked up, full-length) MEEVPPYSLSSTLFQQEEQSGVTYRIPALLYLPPTHTFLAFAEKRTSVRDEDAACLVLRRGLMKGRSVQWGPQRLLMEATLPGHRTMNPCPVWEKNTGRVYLFFICVRGHVTERCQIVWGKNAARLCFLCSEDAGCSWGEVKDLTEEVIGSEVKRWATFAVGPGHGIQLHSGRLIIPAYAYYVSRWFLCFACSVKPHSLMIYSDDFGVTWHHGKFIEPQVTGECQVAEVAGTAGNPVLYCSARTPSRFRAEAFSTDSGGCFQKPTLNPQLHEPRTGCQGSVVSFRPLKMPNTYQDSIGKGAPATQKCPLLDSPLEVEKGAETPSATWLLYSHPTSKRKRINLGIYYNRNPLEVNCWSRPWILNRGPSGYSDLAVVEEQDLVACLFECGEKNEYERIDFCLFSDHEVLSCEDCTSPSSD	−1.61	−1.209	−1.761	−1.8685	−1.601	down
Q9QYY9 (protein, UniProt Q9QYY9 1-377, looked up, full-length) MGTQGKVIKCKAAIAWKTGSPLCIEEIEVSPPKACEVRIQVIATCVCPTDINATDPKKKALFPVVLGHECAGIVESVGPGVTNFKPGDKVIPFFAPQCKRCKLCLSPLTNLCGKLRNFKYPTIDQELMEDRTSRFTCKGRSIYHFMGVSSFSQYTVVSEANLARVDDEANLERVCLIGCGFSSGYGAAINTAKVTPSSTCAVFGLGCVGLSAIIGCKIAGASRIIAIDINGEKFPKAKALGATDCLNPRELDKPVQDVITELTAGGVDYSLDCAGTAQTLKAAVDCTVLGWGSCTVVGAKVDKMTIPTVDVILGRSINGTFFGGWKSVDSVPNLVSDYKNKKFDLDLLVTHALPFESINDAIDLMKEGKSIRTILTF	−1.654	−1.109	−2.606	−2.0305	−0.87	down
Q9R022 (protein, UniProt Q9R022 1-198, looked up, full-length) MDAILNYRPEGSEDYYALLGCDELSSVEQILAEFKIRALECHPDKHPENSKAVETFQKLQKAKEILCNAESRARYDHWRRSQMSMPFEQWEALADSVKTSMHWAVRSKKDLMLEGSGQTFTSSVPNKERSEQRETKKGDPDSNPEKMKQKEPKFPEEGISPQNPDSPGLSDLNCGHLRFRWSGDAPSELLRKFRNYEI	1.154	1.573	1.212	0.6885	1.141	up
Q9QYB2 (protein, UniProt Q9QYB2 1-751, looked up, full-length) MAVPAALIPPTQLVPPQPPISTSASSSGTTTSTSSATSSPAPSIGPPASSGPTLFRPEPIASSASSSAAATVTSPGGGGGGSGGGGGSGGNGGGGGSNCNPSLAAGSSGGGVSAGGGGASSTPITASTGSSSSSSSSSSSSSSSSSSSSSSSSSSSCGPLPGKPVYSTPSPVENTPQNNECKMVDLRGAKVASFTVEGCELICLPQAFDLFLKHLVGGLHTVYTKLKRLEITPVVCNVEQVRILRGLGAIQPGVNRCKLISRKDFETLYNDCTNASSRPGRPPKRTQSVTSPENSHIMPHSVPGLMSPGIIPPTGLTAAAAAAAAATNAAIAEAMKVKKIKLEAMSNYHASNNQHGADSENGDMNSSVGSSGGSWDKETLHSPPSQGSQAPVAHARMPAAFSLPVSHPLNHLQHSHLPPNGLELPFMMMPHPLIPVSLPPASVTMAMSQMNHLSTIANMAAAAQVQSPPSRVETSVIKERVPDSPSPAPSLEEGRRPGSHPSSHRSSSVSSSPARTESSSDRIPVHQNGLSMNQMLMGLSPNVLPGPKEGDLAGHDMGHESKRIHIEKDETPLSTPTARDSIDKLSLTGHGQPLPPGFPSPFLFPDGLSSIETLLTNIQGLLKVAIDNARAQEKQVQLEKTELKMDFLRERELRETLEKQLAMEQKNRAIVQKRLKKEKKAKRKLQEALEFETKRREQAEQTLKQAASADSLRVLNDSLTPEIEADRSGGRADAERTIQDGRLYLKTTVMY	1.286	0.838	1.286	1.3505	1.402	up
Q9QXE2 (protein, UniProt Q9QXE2 1-573, looked up, full-length) MDPQGIVKAFPKRKKSHADLSSKALAKIPKREVGEARGWLSSLRAHIMPAGIGRARAELFEKQIIHHGGQVCSAQAPGVTHIVVDEDMDYERALRLLRLPQLPPGAQLVKSTWLSLCLQEGRLTDTEGFSLPMPKRSLDEPQPSKSGQDASAPGTQRDLPRTTLSLSPPHTRAVSPPPTAEKPSRTQAQLSSEDETSDGEGPQVSSADLQALITGHYPTPPEEDGGPDPAPEALDKWVCAQPSSQKATNYNLHITEKLEVLAKAYSVQGDKWRALGYAKAINALKSFHKPVSSYQEACSIPGIGKRMAEKVMEILESGHLRKLDHISDSVPVLELFSNIWGAGTKTAQMWYHQGFRNLEDLQSLGSLTAQQAIGLKHYDDFLDRMPREEAAEIEQTVRISAQAFNPGLLCVACGSYRRGKMTCGDVDVLITHPDGRSHRGIFSCLLDSLRQQGFLTDDLVSQEENGQQQKYLGVCRLPGPGKRHRRLDIIVVPYCEFACALLYFTGSAHFNRSMRALAKTKGMSLSEHALSAAVVRNSQGVKVGPGQVLPTPTEKDVFKHLGLPYREPAERDW	1.478	0.861	1.509	1.4485	2.093	up
